Test results published in US20250346678A1 (published 2025).
Values belong to the binder of their own block, whether it stands above or below them.

Legend:
[1] = molecular target: T1, human PD-L1 IgG1 Fc chimera (human, UniProt Q9NZQ7 19-238); assay: ELISA
[2] = molecular target: T1, human PD-L1 IgG1 Fc chimera; assay: competition ELISA; PD-1/PD-L1 blocking
[3] = molecular target: T2, human OX40 IgG1 Fc chimera (human, UniProt P43489 29-214); assay: ELISA
T2 chain: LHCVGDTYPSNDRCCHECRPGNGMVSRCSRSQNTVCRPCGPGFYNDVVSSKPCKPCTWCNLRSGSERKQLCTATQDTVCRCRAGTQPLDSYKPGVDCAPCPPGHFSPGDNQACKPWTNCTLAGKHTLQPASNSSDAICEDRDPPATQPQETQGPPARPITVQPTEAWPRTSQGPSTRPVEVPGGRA

T1 sequence (Q9NZQ7 19-238, change not shown): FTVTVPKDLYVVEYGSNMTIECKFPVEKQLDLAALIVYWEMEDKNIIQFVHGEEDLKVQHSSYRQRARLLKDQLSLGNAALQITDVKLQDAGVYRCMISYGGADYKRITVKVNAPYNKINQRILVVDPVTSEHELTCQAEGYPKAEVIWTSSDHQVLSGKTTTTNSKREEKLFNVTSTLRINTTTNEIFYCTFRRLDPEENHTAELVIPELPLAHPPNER

- EC50 [1]: 0.082 nM
- IC50 [2]: 11.4 nM
B1: anti-PD-L1 antibody clone 6 (antibody, V domains shown)
VH: QVQLVQSGAEVKKPGSSVKVSCKASGGTFRRYSISWVRQAPGQGLEWMGGIIPVFGAAKYAQKFQGRVTITADEFTSTAYMELSSLTSEDTAVYYCALSGDSDAFDIWGQGTMVTVSS
VL: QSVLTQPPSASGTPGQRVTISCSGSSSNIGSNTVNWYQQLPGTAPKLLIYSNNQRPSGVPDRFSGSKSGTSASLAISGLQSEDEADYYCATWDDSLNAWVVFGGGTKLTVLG

- EC50 [3]: 1.22 nM
B2: anti-OX40 antibody clone B19 (antibody, V domains shown)
VH: EVQLVESGGGLVKPGGSLRLSCAASGFTFSSYSMNWVRQAPGKGLEWVSSISSSSRYIYYADSVKGRFTISRDNAKNSLYLQMNSLRAEDTAVYYCARQNEDVAFGIWGQGTMVTVSS
VL: SYVLTQPPSVSVTPGKTARIACGGNNLESKIVSWYQQKPGQAPVLVIFYDTDRPSGISERFSGSNSGNTATLTISRVEAGDEADYYCQVWDSNSDHVIFGGGTKLTVLG

- EC50 [1]: 0.0348 nM
B3: anti-PD-L1 antibody clone 32 (antibody, V domains shown)
VH: QVQLVQSGAKVKKPGSSVKVSCKASGGTFSSYAISWVRQAPGQGLEWMGRIIPILGIANYAQKFQGRVTITADKSTSTAYMELSSLRSEDTAVYYCARVVPGYSYGPFDYWGQGTTVTVSS
VL: QSALTQPASVSGSPGQSITISCTGTSNDVGSYNSVSWYQQHPGKAPKLVIYEVANRPSGVPDRFSGSKSGNTASLTISGLQAEDEADYYCSSYTSSSTLVFGGGTKLTVLG
